The text below walks through data of paper PMC8211282, “The bioactivity of soluble Fas ligand is modulated by key amino acids of its stalk region” (PLoS ONE, 2021).

The target in experiment [1] is T1, biotinylated wild type soluble Fas ligand (biotinylated WT-sFasL) (human, UniProt P48023 103-281, biotin (EZ-Link Sulfo-NHS-LC-Biotin), sites not stated).
T1 construct: human Fas ligand (FasL, CD178), soluble long form, amino acids 103 to 281; the same protein as m1, biotinylated after purification; Same construct as m1, chemically biotinylated
T1 sequence (looked up): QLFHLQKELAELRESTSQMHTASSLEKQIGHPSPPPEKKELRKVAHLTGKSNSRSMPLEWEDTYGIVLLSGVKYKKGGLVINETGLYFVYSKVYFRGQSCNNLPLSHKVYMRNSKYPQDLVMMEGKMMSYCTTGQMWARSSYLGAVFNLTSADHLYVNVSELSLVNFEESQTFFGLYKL
Nature of the experiment: ELISA; competition: wells coated with recombinant human soluble Fas (250 ng/ml); biotinylated WT sFasL (70 ng/ml) mixed with serial 3-fold dilutions of WT or 8-site mutated sFasL, 2 hours; biotin detected with HRP-streptavidin. The following applies: both partners purified.

For experiment [2], the target named is T2, wild type soluble Fas ligand (WT-sFasL), long form, amino acids 103 to 281 (human, UniProt P48023 103-281).
T2 construct: human Fas ligand (FasL, CD178), soluble long form, amino acids 103 to 281 of the 281 amino acid protein; cloned in pSecTag/FRT/V5-His-TOPO with stop codons, so the V5-His tag is not expressed ('native form'); Secreted from the pSecTag vector; the oligomeric state was not measured here; also called wild type sFasL; long form of sFasL
T2 sequence (looked up): T1 sequence (looked up)
Description: ELISA; direct binding: wells coated with recombinant human soluble Fas, 5 ug/ml; serial 3-fold dilutions of WT or mut-sFasL, 2 hours; bound sFasL detected with a polyclonal anti-human FasL antibody. The following applies: both partners purified.

B1: recombinant human soluble Fas receptor (receptor, UniProt P25445 26-173, looked up)
chain: QVTDINSKGLELRKTVTTVETQNLEGLHHDGQFCHKPCPPGERKARDCTVNGDEPDCVPCQEGKEYTDKAHFSSKCRRCRLCDEGHGLEVEINCTRTQNTKCRCKPNFFCNSTVCEHCDPCTKCEHGIIKECTLTSNTKCKEEGSRSN
notes: human Fas (CD95), recombinant soluble receptor from PeproTech; No catalogue number is printed; also called recombinant human Fas; CD95; source: bought: PeproTech
For B1, the binding result in experiment [1] and in experiment [2] was “binds” throughout.
